The source of these data is publication PMC7053344, “Crystal Structures of Human C4.4A Reveal the Unique Association of Ly6/uPAR/α-neurotoxin Domain” (International Journal of Biological Sciences, 2020).

The target in test [1] is T1, C4.4A-DIDII^1-199 fused to a C-terminal uPAR DIII purification tag (Homo sapiens, UniProt O95274).
T1 construct: C4.4A (LYPD3), human, both LU-domains DI and DII, residues 1-199; also called C4.4A-DIDII (blot construct); not shown: uPAR DIII, C-terminal, kept
Kind of test: far-Western, overlay or dot blot; immunoblot: purified C4.4A domain constructs, unreduced (lanes 1-6), separated by SDS-PAGE and immobilized on a PVDF membrane; 1 µg/mL mAb 11H10 as primary antibody, peroxidase-conjugated anti-mouse immunoglobulins, ECL. The note with it: both partners purified.

Test [2] concerns the target T2, C4.4A^1-278 fused to a C-terminal uPAR DIII purification tag (Homo sapiens, UniProt O95274).
T2 construct: C4.4A (LYPD3), human, DI, DII and STP-rich region, residues 1-278; also called C4.4A-ent-uPAR-DIII; not shown: uPAR DIII, C-terminal, kept
The description is as above. As to conditions: both partners purified.

T1 sequence (O95274 whole entry, looked up, the tested form may be a part): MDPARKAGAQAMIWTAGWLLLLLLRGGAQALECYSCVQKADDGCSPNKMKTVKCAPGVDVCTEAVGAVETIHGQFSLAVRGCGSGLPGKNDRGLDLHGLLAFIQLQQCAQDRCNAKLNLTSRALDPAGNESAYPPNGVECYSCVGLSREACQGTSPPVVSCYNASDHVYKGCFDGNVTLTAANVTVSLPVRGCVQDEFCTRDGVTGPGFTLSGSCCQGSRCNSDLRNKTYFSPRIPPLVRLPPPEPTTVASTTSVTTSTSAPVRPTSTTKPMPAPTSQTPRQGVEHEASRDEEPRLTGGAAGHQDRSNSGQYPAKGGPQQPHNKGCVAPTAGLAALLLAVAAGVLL
T2 sequence (O95274 whole entry, looked up, the tested form may be a part): as above

B1: mouse monoclonal anti-human C4.4A antibody 11H10 (antibody, V domains shown)
VH: QVTLKESGPGILQPSQTLSLTCSFSGFSLNSFGTGVGWIRQPSGKGLEWLAHIWWNDYKYYNAALESRLTISKDTSNNQVFLKIASVDTADTATYYCARLRLRYFDYWGQGTTLTVSS
VL: DILMTQSPAILSVSPGEGVSFSCWANQNIGTSIHWYQQRTNGSPRLLIKYASESISGIPSRFSGSGSGTDFTLSINSVESEDIADYYCQQSNSWPIFTFGSGTKLEIK
notes: 11H10 light chain (kappa), printed as the Fab light chain; 11H10 heavy chain VH, CH1 and start of the hinge, printed as the Fab heavy chain; mouse IgG1 heavy chain constant region, the rest of the hinge, CH2 and CH3 that follow the printed Fd (ends VPRDC); IgG1 kappa; also called mAb 11H10; source: mouse hybridoma (FVB mice immunized with recombinant human C4.4A), purified
Consider B1, for which the binding result in test [1] and in test [2] was “binds” each time.
